Results reported in patent US20250242034A1, “PHOSPHORAMIDATE-BASED PSMA-TARGETED SMALL-MOLECULE DRUG CONJUGATES” (priority 2022, published 2025).
Read-outs that look alike come from different tables or passages of the source. Square brackets hold non-standard residues; d marks the D form. Peptide text beside a SMILES is read from it. * marks the point of attachment. Dolaproine = CO[C@@H]([C@@H]1CCCN1)[C@@H](C)C(=O)O; Dil = CC[C@H](C)[C@H](NC)[C@@H](CC(=O)O)OC; X1 = C[C@@H](N*)[C@@H](O)c1ccccc1; NMeV = CN[C@H](C(=O)O)C(C)C

How the values were obtained:
[1] = test system: PSMA+ PC3-PIP tumor cells; assay type: in vivo, NCr nude mice; details: n=8; for time until animals reached end point criteria / end point tumor burden after first administration: IV once weekly for 6 weeks, SMDCs 0.8 mg/kg, MMAE 0.2 mg/kg
Description: Efficacy Study Design: NCr nude mice (age 6-8 weeks) injected with 1×10^6 PC3 PiP cells (1:1 in saline with Matrigel, 100 μL total volume) subcutaneously to right rear flank. Tumors were allowed to grow until approximate size of 100 mm^3 (roughly 2-3 weeks) before starting compound treatments. Treatment consisted of an injection of the appropriate compound to the lateral tail vein (100 μL bolus) once a week for the first 6 weeks of the study. Efficacy treatment groups were 8 animals each of: 1) saline, 2) MMAE alone, 0.2 mg/kg (molar equivalent to the MMAE conjugated to the small molecules), 3) CTT1700 (structure noted below), 0.8 mg/kg, 4) 1, 0.8 mg/kg, and 5) 2, 0.8 mg/kg. Tumor sizes were measured twice weekly for the duration of the study and mortality noted for survival curves. Animals were sacrificed if tumor condition reached IACUC standards for euthanasia (tumor burden of >1.5 cm in any axis, ulceration, >20% weight loss). Blood draws were taken via superficial temporal vein at 0, 4, 7 and 10 weeks and CBCs with 3-part differential measured.
(§1) To evaluate efficacy of SMDCs 1 and 2 in preclinical models of human PCa, we employed xenograft tumor models derived from PSMA+ PC3-PIP tumor cells implanted subcutaneously in the right rear flank of NCr nude mice (6-8 weeks old). […] Tumor sizes were measured twice weekly for the duration of the study and mortality noted for survival curves for 90 days after first administration. Animals were euthanized if tumor or mouse condition reached IACUC standards for euthanasia (tumor burden of >1.5 cm in any axis, ulceration, >20% mouse weight loss). Blood draws were taken via superficial temporal vein at 0, 4, 7 and 10 weeks, and complete blood count (CBC) analysis was performed with a 3-part differential measurement.

[2] = Compound residence study (PK): plasma and tissue levels of parent drug and MMAE by LC-MS/MS; assay type: in vivo, NCr nude mice; details: for Tumor AUC0-t, MMAE / Tumor Cmax, MMAE / Tumor AUC0-t, Parent / Tumor Cmax, Parent: PC3-PiP tumor; for Tumor AUC0-t, MMAE / Tumor Cmax, MMAE / Kidney AUC0-t, MMAE / Kidney Cmax, MMAE / Plasma % extrapolated, MMAE: analyte MMAE payload; for fraction of drug that is estimated to release MMAE: calculated from apparent MMAE formation clearance and reported MMAE clearance; for parent drug concentrations in tissues other than tumor: 0.8 mg/kg
Description: Compound Residence study design (PK Studies): Three volumes of PBS, pH 7.4, were added to tumor, kidney, and lacrimal tissues and 10 volumes of PBS, pH 7.4, were added to prostate tissue samples. Tumor, kidney, and prostate samples were homogenized with a homogenizer, and lacrimal tissues were sonicated with a sonicator. Twenty five microliters of plasma or tissue homogenate was added to a microcentrifuge tube followed by 10 μL of internal standard solution and 100 μL of 5 mM ammonium bicarbonate and acetonitrile (25:75 v,v). The sample was then vortexed at a high setting for 1 minute and centrifuged at 17,200×g for 10 minutes. The resultant supernatant was pipetted into an HPLC vial and 10-20 μL was injected into the LC-MS/MS system. […] [^2H8]-MMAE was used as the internal standard for MMAE. […] A SCIEX 6500+ Qtrap LC-MS/MS system consisting of an Agilent (Palo Alto, CA 94036) 1290 HPLC and Sciex 6500+ QTrap mass detector was used for quantitation of MMAE concentrations. The chromatography consisted of a gradient using of 5 mM ammonium bicarbonate and acetonitrile and the separation was achieved using a Phenomenex (Torrance, CA 90501) Kinetex column (2×50 mm, 2.6 μm). […] Standard curves were linear from 10-10,000 ng/mL for CTT1700, SMDCs 2 and 1 while the MMAE standard curves were linear from 0.01 to 10 ng/mL. A 1/y^2 weighted linear regression was used for all standard curves.
PK parameters were estimated using standard noncompartmental methods with Phoenix WinNonlin (Certara, Princeton, NJ). Plasma parent drugs were derived using the IV bolus approach, while all other data were derived using the extravascular approach.
as §1, with “measurement. For biodistribution studies, blood samples were obtained at 1 and 6 h post a single 0.8 mg/kg dose, followed by euthanasia at 24, 72 and 120 h; LC-MS/MS analysis was performed to determine concentrations of SMDC and MMAE in plasma, tumor, lacrimal gland, kidney, and prostate samples.” for “measurement.”

[3] = reported pharmacokinetics of MMAE dosed directly; assay type: in vivo; details: corresponds to 60 mL/h
[4] = cited from earlier work
PSMA = PSMA (Homo sapiens, UniProt Q04609); assay: PSMA binding (IC50 values for PSMA)
Chain of PSMA (Q04609 whole entry): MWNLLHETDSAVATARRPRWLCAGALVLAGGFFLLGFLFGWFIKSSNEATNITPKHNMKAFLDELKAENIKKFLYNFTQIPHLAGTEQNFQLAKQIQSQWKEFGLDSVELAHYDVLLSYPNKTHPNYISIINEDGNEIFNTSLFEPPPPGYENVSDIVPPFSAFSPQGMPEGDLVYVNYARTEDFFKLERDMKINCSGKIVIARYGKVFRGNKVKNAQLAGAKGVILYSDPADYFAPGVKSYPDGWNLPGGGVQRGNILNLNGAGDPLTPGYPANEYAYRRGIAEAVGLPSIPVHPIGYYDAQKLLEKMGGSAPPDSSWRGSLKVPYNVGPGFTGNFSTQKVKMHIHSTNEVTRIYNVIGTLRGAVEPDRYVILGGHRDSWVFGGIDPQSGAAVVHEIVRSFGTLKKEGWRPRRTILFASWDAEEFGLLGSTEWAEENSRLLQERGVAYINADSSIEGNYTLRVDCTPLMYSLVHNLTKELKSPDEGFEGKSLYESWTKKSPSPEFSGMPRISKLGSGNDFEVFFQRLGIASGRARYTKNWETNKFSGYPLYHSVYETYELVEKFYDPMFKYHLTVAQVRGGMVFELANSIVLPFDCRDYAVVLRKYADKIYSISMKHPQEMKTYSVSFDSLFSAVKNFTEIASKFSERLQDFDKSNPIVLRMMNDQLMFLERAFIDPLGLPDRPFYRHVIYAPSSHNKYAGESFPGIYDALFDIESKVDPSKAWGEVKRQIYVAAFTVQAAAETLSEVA

[5] = 0.8 mg/kg IV once weekly for 6 weeks
[6] = IV 0.8 mg/kg, analyte parent drug
[7] = IV 0.8 mg/kg, kidney, analyte parent drug
[8] = IV 0.8 mg/kg, plasma, analyte parent drug
[9] = NCr nude, mouse, IV 0.8 mg/kg, plasma, analyte parent drug, read-out: Plasma Cmax, Parent

SMILES: CC[C@H](C)[C@@H]([C@@H](CC(=O)N1CCC[C@H]1[C@H](OC)[C@@H](C)C(=O)N[C@H](C)[C@@H](O)c1ccccc1)OC)N(C)C(=O)[C@@H](NC(=O)[C@H](C(C)C)N(C)P(=O)(O)OCC[C@H](NC(=O)c1ccc(Cn2nnc3c2-c2ccccc2CN(C(=O)CCC(=O)NCCOCCOCCOCCOCCC(=O)N[C@@H](CCC(=O)NCCCCCC(=O)N[C@@H](CCC(=O)N[C@@H](CCCOP(=O)(O)N[C@@H](CCC(=O)O)C(=O)O)C(=O)O)C(=O)O)C(=O)N[C@H](CCCCNC(=O)CCCc2ccc(I)cc2)C(=O)O)c2ccccc2-3)cc1)C(=O)O)C(C)C [CTT1700, reference compound]
- therapeutic efficacy (in words) [1, 5]: moderate efficacy
- time until animals reached end point criteria / end point tumor burden after first administration [1]: ≤ 12 weeks
- Tumor AUC0-t, MMAE ([2]; IV 0.8 mg/kg): 262 ng·days/g
- Tumor Cmax, MMAE ([2]; IV 0.8 mg/kg): 98.7 ng/g
- Tumor AUC0-t, Parent [2, 6]: 483 ng·days/g
- Tumor Cmax, Parent [2, 6]: 194 ng/g
- Kidney AUC0-t, MMAE ([2]; IV 0.8 mg/kg, kidney): 4.00 ng·days/g
- Kidney Cmax, MMAE ([2]; IV 0.8 mg/kg, kidney): 1.82 ng/g
- Kidney AUC0-t, Parent [2, 7]: 685 ng·days/g
- Kidney Cmax, Parent [2, 7]: 400 ng/g
- Lacrimal AUC0-t, Parent ([2]; IV 0.8 mg/kg, lacrimal gland, analyte parent drug): 220 ng·days/g
- Plasma % extrapolated, MMAE ([2]; IV 0.8 mg/kg, plasma AUC): 28%
- Plasma % extrapolated, Parent ([2]; IV 0.8 mg/kg, plasma AUC, analyte parent drug): 1.9%
- Plasma AUC0-inf, Parent [2, 8]: 6566 ng·days/mL
- Plasma AUC0-t, Parent [2, 8]: 6442 ng·days/mL
- Prostate AUC0-t, Parent ([2]; IV 0.8 mg/kg, prostate, analyte parent drug): 647 ng·days/g
- Kp ([2]; NCr nude, mouse, kidney/plasma, IV 0.8 mg/kg, analyte parent drug, read-out: Kp (kidney/plasma), Parent): 0.106
- Kp ([2]; NCr nude, mouse, lacrimal gland/plasma, IV 0.8 mg/kg, analyte parent drug, read-out: Kp (Lacrimal/plasma), Parent): 0.0342
- Kp ([2]; NCr nude, mouse, prostate/plasma, IV 0.8 mg/kg, analyte parent drug, read-out: Kp (prostate/plasma), Parent): 0.1
- Kp ([2]; NCr nude, mouse, tumor/plasma, IV 0.8 mg/kg, analyte parent drug, read-out: Kp (tumor/plasma), Parent): 0.075
- Cmax ([2]; NCr nude, mouse, IV 0.8 mg/kg, lacrimal gland, analyte parent drug, read-out: Lacrimal Cmax, Parent): 71.9 ng/g
- Tmax ([2]; NCr nude, mouse, IV 0.8 mg/kg, plasma, analyte parent drug): 1 h
- clearance ([2]; NCr nude, mouse, IV 0.8 mg/kg, plasma, analyte parent drug, read-out: Plasma Cl, Parent (converted)): 5.08 mL/h/kg
- Cmax [2, 9]: 7020 ng/mL
- Vd ([2]; NCr nude, mouse, IV 0.8 mg/kg, plasma, analyte parent drug, read-out: Plasma Vss, Parent): 0.136 L/kg
- half-life ([2]; NCr nude, mouse, IV 0.8 mg/kg, plasma, analyte parent drug, read-out: Plasma t1/2, Parent (converted)): 23 h
- Cmax ([2]; NCr nude, mouse, IV 0.8 mg/kg, prostate, analyte parent drug, read-out: Prostate Cmax, Parent): 280 ng/g
- fraction of drug that is estimated to release MMAE [2]: 1%

SMILES: CC[C@H](C)[C@@H]([C@@H](CC(=O)N1CCC[C@H]1[C@H](OC)[C@@H](C)C(=O)N[C@H](C)[C@@H](O)c1ccccc1)OC)N(C)C(=O)[C@@H](NC(=O)[C@@H](NC)C(C)C)C(C)C [MMAE, Monomethyl auristatin E] (H-[NMeV]V[Dil][Dolaproine]-X1)
- time until animals reached end point criteria / end point tumor burden after first administration [1]: ≤ 6 weeks
- reported plasma clearance of MMAE, converted [3]: 1960 mL/h/kg
- t1/2 reported for MMAE when dosed directly ([4]; MMAE dosed directly): 4.1 h
- reported plasma clearance of MMAE ([4]; in vivo): 60 mL/h

SMILES: CC[C@H](C)[C@@H]([C@@H](CC(=O)N1CCC[C@H]1[C@H](OC)[C@@H](C)C(=O)N[C@H](C)[C@@H](O)c1ccccc1)OC)N(C)C(=O)[C@@H](NC(=O)[C@H](C(C)C)N(C)C(=O)OCc1ccc(NC(=O)[C@H](CCCNC(N)=O)NC(=O)[C@@H](NC(=O)c2ccc(Cn3nnc4c3-c3ccccc3CN(C(=O)CCC(=O)NCCOCCOCCOCCOCCC(=O)N[C@@H](CCC(=O)NCCCCCC(=O)N[C@@H](CCC(=O)N[C@@H](CCCOP(=O)(O)N[C@@H](CCC(=O)O)C(=O)O)C(=O)O)C(=O)O)C(=O)N[C@H](CCCCNC(=O)CCCc3ccc(I)cc3)C(=O)O)c3ccccc3-4)cc2)C(C)C)cc1)C(C)C [SMDC 1]
- IC50 (PSMA; read-out: IC50 for PSMA): 24.1 ± 2.1 nM
- survival 90 days after initial dosing [1, 5]: Six of eight
- therapeutic efficacy (in words) [1, 5]: dramatic efficacy compared to controls
- tumor growth response [1, 5]: tumor regression was observed following initiation of administration up until 2 weeks after the last dose, with subsequent slow tumor growth
- Tumor AUC0-t, MMAE ([2]; IV 0.8 mg/kg): 1652 ng·days/g
- Tumor Cmax, MMAE ([2]; IV 0.8 mg/kg): 509 ng/g
- Tumor AUC0-t, Parent [2, 6]: 475 ng·days/g
- Tumor Cmax, Parent [2, 6]: 122 ng/g
- parent drug concentrations in tissues other than tumor [2, 6]: could not be quantified in any other tissue other than the tumor
- parent drug concentrations in tissues other than tumor ([2]; IV 0.8 mg/kg, analyte parent drug, listed as VC): VC concentrations in all tissues other than tumor were below the LLOQ.
- Kidney AUC0-t, MMAE ([2]; IV 0.8 mg/kg, kidney): 55.5 ng·days/g
- Kidney Cmax, MMAE ([2]; IV 0.8 mg/kg, kidney): 30.6 ng/g
- distribution volume of parent SMDC ([2]; IV 0.8 mg/kg, plasma): 0.106 L/kg
- Plasma % extrapolated, MMAE ([2]; IV 0.8 mg/kg, plasma AUC): 2.9%
- absolute tumor MMAE exposure compared to CTT1700 ([2]; IV 0.8 mg/kg, tumor, higher than control SMDC with non-degradable linker): approximately 6 fold
- Cmax [2, 9]: < 10 ng/mL
- fraction of drug that is estimated to release MMAE [2]: 38%

SMILES: CC[C@H](C)[C@@H]([C@@H](CC(=O)N1CCC[C@H]1[C@H](OC)[C@@H](C)C(=O)N[C@H](C)[C@@H](O)c1ccccc1)OC)N(C)C(=O)[C@@H](NC(=O)[C@H](C(C)C)N(C)C(=O)OCc1ccc(OC(=O)N(C)CCN(C)P(=O)(O)OCC[C@H](NC(=O)c2ccc(Cn3nnc4c3-c3ccccc3CN(C(=O)CCC(=O)NCCOCCOCCOCCOCCC(=O)N[C@@H](CCC(=O)NCCCCCC(=O)N[C@@H](CCC(=O)N[C@@H](CCCOP(=O)(O)N[C@@H](CCC(=O)O)C(=O)O)C(=O)O)C(=O)O)C(=O)N[C@H](CCCCNC(=O)CCCc3ccc(I)cc3)C(=O)O)c3ccccc3-4)cc2)C(=O)O)cc1)C(C)C [SMDC 2]
- IC50 (PSMA): 1.74 ± 0.14 nM
